Source: PMC4347215 (Nature Communications, 2015)

B1: monoclonal antibody CD6 (whole IgG) (antibody, V domains shown)
VH: QVKLQESGGGLVQPKGSLKLSCAASGFTFNTYAMNWVRQAPGKGLEWVARIRSKSNNYATFYADSVKDRFTISRDDSQSMLYLQMHNLKTDDTAMYYCVRPSIYYYASGYLDVWGAGTTVTVSS
VL: QIVLSQSPAILSASPGEKVTMTCRTSSSVSYMHWYQQKPGSSPKPWIYATSNLASGVPFRFSGSGSGTSYSLTISRVEAEDAATYYCQQWNSNPPTFGGGTKLEIK
notes: copies: 2 + 2
B2: CD6 Fab2 (other)
VH: B1 VH
VL: B1 VL
notes: F(ab')2 fragment; copies: 2 + 2
B3: CD6 Fab (Fab, V domains shown)
VH: B1 VH
VL: B1 VL

Columns and labels:
[1] = biological target: recombinant CA/09 NA (neuraminidase of A/California/07/2009) (Influenza A virus A/California/07/2009 …, UniProt C3W5S3); experiment: BLI; settings: both partners purified
[2] = biological target: NA (CA/09) as antigen of the ELISA of Supplementary Fig. 5 (Influenza A virus A/California/07/2009 …, UniProt C3W6G3, strain); experiment: ELISA
[3] = biological target: recombinant CA/09 NA, thrombin-cleaved (His-tag depleted) (influenza A virus A/California/07/2009 …, UniProt C3W5S3, N-linked glycans seen at Asn88, Asn146 and Asn235); experiment: crystal structure; settings: both partners purified

Binder | Kd [1] | binding result [2] | stoichiometry N [3]
B1 | ~95 nM | binds | –
B2 | – | binds | –
B3 | – | binds | 4 Fabs per NA tetramer
